Consider three molecules from patent US20140186363A1 (UNIVERSITY OF ZURICH, published 2014).

The EC50 is the concentration needed to bring the measured effect to its halfway point. Broadly, the EC50 (read off the curve) is the midpoint of the concentration-response curve.

Experiment [1] concerns the target T1, MAGEA3 peptide no 5.
T1 construct: also called MAGEA3 aa 41-60
T1 peptide: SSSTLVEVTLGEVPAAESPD
The experiment is described as follows: ELISA on plate-coated 20mer peptide, antibody at 1 µg/ml, anti-human IgG Fc-HRP [Figure 1]. As to the method:
(§1) 20mer peptides spanning the entire MAGEA3 protein with 10 aa overlaps shared by each adjacent peptide (Peptides&Elephants, Nuthetal, Germany) were used to coat Maxisorp ELISA plates (Nunc, Rochester, N.Y.). As control a 20mer peptide representing amino acids 40-21 from the NY-ESO-1 protein was used (rev). The numbering of amino acids of MAGEA3 is based on SEQ ID No:41.
(§2) Human recombinant antibody was used at a concentration of 1 μg/ml. Bound human antibody was detected using horseradish peroxidase-conjugated goat anti-human IgG Fc-gamma specific antibodies (Jackson ImmunoResearch, Europe Ltd., Cambridgeshire, UK).

The next experiment has as its target T2, MAGEA3 peptide no 1.
T2 construct: also called MAGEA3 aa 1-20
T2 peptide: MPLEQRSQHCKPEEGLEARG
The experiment is described as follows: peptide ELISA (coated 20mer) [Figure 1]. As to the method:
as §1, §2
A general note: An ELISA detects its analyte on a solid surface through an enzyme-linked reagent.

Another experiment has as its target T3, MAGEA3 peptide no 20.
T3 construct: also called MAGEA3 aa 191-210
T3 peptide: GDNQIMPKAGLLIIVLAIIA
The experiment is described as follows: peptide ELISA (coated 20mer) [Figure 1]. As to the method:
as §1, §2

In the next experiment the target is T4, MAGEA3 peptide no 7.
T4 construct: also called MAGEA3 aa 61-80
T4 peptide: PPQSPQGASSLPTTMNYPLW
The experiment is described as follows: peptide ELISA (coated 20mer) [Figure 1]. The procedure:
as §1, §2

The target of experiment [2] is T5, MAGEA3 peptide no 6.
T5 construct: also called MAGEA3 aa 51-70
T5 peptide: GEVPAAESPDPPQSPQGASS
The experiment is described as follows: peptide ELISA (coated 20mer) [Figure 1]. The procedure:
as §1, §2

In experiment [3] the target is T6, MAGEA3 peptide no 21.
T6 construct: also called MAGEA3 aa 201-220
T6 peptide: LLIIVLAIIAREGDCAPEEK
The experiment is described as follows: peptide ELISA (coated 20mer) [Figure 1]. The procedure:
as §1, §2

In a further experiment the target is T7, MAGEA3 peptide no 8.
T7 construct: also called MAGEA3 aa 71-90
T7 peptide: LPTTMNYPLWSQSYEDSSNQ
The experiment is described as follows: peptide ELISA (coated 20mer) [Figure 1]. The procedure: as §1, §2

Experiment [4] concerns the target T8, MAGEA3 peptide no 26.
T8 construct: also called MAGEA3 aa 251-270
T8 peptide: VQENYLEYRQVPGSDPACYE
The experiment is described as follows: peptide ELISA (coated 20mer) [Figure 1]. The procedure:
as §1, §2

Experiment [5] concerns the target T9, MAGEA3 peptide no 11.
T9 construct: also called MAGEA3 aa 101-120
T9 peptide: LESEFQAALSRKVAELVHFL
The experiment is described as follows: peptide ELISA (coated 20mer) [Figure 1]. The procedure:
as §1, §2

Experiment [6] deals with T10, MAGEA3 peptide no 9.
T10 construct: also called MAGEA3 aa 81-100
T10 peptide: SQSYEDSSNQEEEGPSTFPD
The experiment is described as follows: peptide ELISA (coated 20mer) [Figure 1]. The procedure:
as §1, §2

Experiment [7] has as its target T5, MAGEA3 peptide no 6. The experiment is described as follows: ELISA on plate-coated 20mer peptide, antibody at 1 µg/ml, anti-human IgG Fc-HRP [Figure 1]. The procedure: as §1, §2
Experiment [8] has as its target T1, MAGEA3 peptide no 5. The experiment is described as follows: peptide ELISA (coated 20mer) [Figure 1]. The procedure:
as §1, §2

Experiment [9] addresses T11, MAGEA3 (human, UniProt P43357 1-314).
T11 construct: also called recombinant MAGEA3; MAGEA3-protein
The experiment is described as follows: ELISA, plate coated with recombinant MAGEA3, serial dilution of antibody [Figure 4].

Experiment [10] concerns the target T11, MAGEA3. The experiment is described as follows: ELISA, plate coated with recombinant MAGEA3, serial dilution of antibody.
The target of the next experiment is T12, MAGEA3 peptide no 3.
T12 construct: also called MAGEA3 aa 21-40
T12 peptide: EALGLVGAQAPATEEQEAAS
The experiment is described as follows: peptide ELISA (coated 20mer). The procedure:
as §1, §2

For another experiment, the target named is T13, MAGEA3 peptide no 2.
T13 construct: also called MAGEA3 aa 11-30
T13 peptide: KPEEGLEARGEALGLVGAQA
The experiment is described as follows: peptide ELISA (coated 20mer). The procedure: as §1, §2

The target in a further experiment is T14, MAGEA3 peptide no 30.
T14 construct: also called MAGEA3 aa 291-310
T14 peptide: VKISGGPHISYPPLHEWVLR
The experiment is described as follows: peptide ELISA (coated 20mer). As to the method:
as §1, §2

The target of a further experiment is T15, MAGEA3 peptide no 13.
T15 construct: also called MAGEA3 aa 121-140
T15 peptide: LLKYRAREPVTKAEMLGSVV
The experiment is described as follows: peptide ELISA (coated 20mer). The procedure: as §1, §2

A further experiment has as its target T16, MAGEA3 peptide no 19.
T16 construct: also called MAGEA3 aa 181-200
T16 peptide: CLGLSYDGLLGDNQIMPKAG
The experiment is described as follows: peptide ELISA (coated 20mer). The procedure:
as §1, §2

The next experiment deals with T17, MAGEA3 peptide no 18.
T17 construct: also called MAGEA3 aa 171-190
T17 peptide: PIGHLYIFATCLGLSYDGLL
The experiment is described as follows: peptide ELISA (coated 20mer). The procedure:
as §1, §2

A further experiment concerns the target T18, MAGEA3 peptide no 28.
T18 construct: also called MAGEA3 aa 271-290
T18 peptide: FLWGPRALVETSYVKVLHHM
The experiment is described as follows: peptide ELISA (coated 20mer). The procedure:
as §1, §2

In a further experiment the target is T19, MAGEA3 peptide no 17.
T19 construct: also called MAGEA3 aa 161-180
T19 peptide: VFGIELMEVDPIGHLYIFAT
The experiment is described as follows: peptide ELISA (coated 20mer). The procedure:
as §1, §2

Experiment [11] concerns the target T5, MAGEA3 peptide no 6. The experiment is described as follows: peptide ELISA (coated 20mer). The procedure: as §1, §2
Experiment [12] deals with T6, MAGEA3 peptide no 21. The experiment is described as follows: peptide ELISA (coated 20mer). As to the method:
as §1, §2

Another experiment concerns the target T20, MAGEA3 peptide no 10.
T20 construct: also called MAGEA3 aa 91-110
T20 peptide: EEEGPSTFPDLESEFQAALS
The experiment is described as follows: peptide ELISA (coated 20mer). As to the method: as §1, §2

In experiment [13] the target is T8, MAGEA3 peptide no 26. The experiment is described as follows: peptide ELISA (coated 20mer). The procedure:
as §1, §2

Experiment [14] deals with T9, MAGEA3 peptide no 11. The experiment is described as follows: peptide ELISA (coated 20mer). The procedure: as §1, §2
Experiment [15] concerns the target T10, MAGEA3 peptide no 9. The experiment is described as follows: peptide ELISA (coated 20mer). The procedure:
as §1, §2

B1: 102G10 (antibody, V domains shown)
VH: EVQLVESGGGLVKPGGSLRLSCAASGFTFSGNSMNWVRQAPGKGLEWVSSISSSSGYIYYADSVKGRFTVSRDNAKNSLYLQMNSLRAEDTAVYYCATWPVTTARVGYWGQGTLVTVSS
VL: QSVLTQPPSASGTPGQRVTISCSGSSSNIGSNYVYWHQQLPGTAPKLLIYRHDQRPSGVPDRFSGSKSGTSASLAISGLRSEDEADYYCAAWDDSLSAWVFGGGTKLTVL
notes: Patient-derived human antibody made recombinantly; also called human monoclonal antibody 102G10
In the case of B1, the binding result with MAGEA3 peptide no 5 [1] was “binds”; in the experiment with MAGEA3 peptide no 1, “no binding (tested: 1 µg/ml)”; in the experiment with MAGEA3 peptide no 20 it was “no binding (tested: 1 µg/ml)”; with MAGEA3 peptide no 7 it was “no binding (tested: 1 µg/ml)”; in the experiment with MAGEA3 peptide no 6 [2], “no binding (tested: 1 µg/ml)”; with MAGEA3 peptide no 21 [3] it was “no binding (tested: 1 µg/ml)”. Also, the binding result with MAGEA3 peptide no 8, with MAGEA3 peptide no 26 [4], in the experiment with MAGEA3 peptide no 11 [5] and with MAGEA3 peptide no 9 [6] was “no binding (tested: 1 µg/ml)” in each case.

B2: 34G9 (antibody, V domains shown)
VH: EVQLEESGGDLVQPGGSLRLSCAASGFTFSHYWMHWVRQAPGKGLVWVSRINSDGSSTSYADSVKGRFTISRDNAKNTLYLQMNSLRAEDTAVYYCARIGSDGYNYDFWGQGTLVTVSS
VL: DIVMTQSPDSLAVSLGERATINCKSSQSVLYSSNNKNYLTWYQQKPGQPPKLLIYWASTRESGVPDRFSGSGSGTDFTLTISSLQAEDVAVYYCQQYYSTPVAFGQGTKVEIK
notes: Patient-derived human antibody made recombinantly; also called human monoclonal antibody 34G9
Turning to B2, the binding result in the experiment with MAGEA3 peptide no 6 [7] is “binds”; in the experiment with MAGEA3 peptide no 5 [8], “no binding (tested: 1 µg/ml)”; with MAGEA3 peptide no 1, “no binding (tested: 1 µg/ml)”; in the experiment with MAGEA3 peptide no 20, “no binding (tested: 1 µg/ml)”; with MAGEA3 peptide no 7 it was “no binding (tested: 1 µg/ml)”; with MAGEA3 peptide no 21 [3] it was “no binding (tested: 1 µg/ml)”. Further, the binding result in the experiment with MAGEA3 peptide no 8, with MAGEA3 peptide no 26 [4], with MAGEA3 peptide no 11 [5] and with MAGEA3 peptide no 9 [6] was “no binding (tested: 1 µg/ml)” in each case. In addition, the half-maximal effective concentration (EC50) with MAGEA3 [9] turned out to be 0.045 nM. For the same molecule, in the experiment with MAGEA3 [9], the “EC50 (read off the curve)” value was roughly 40 pM.

B3: 32H2 (antibody, V domains shown)
VH: QVQLVESGGGVVQPGRSLRLSCAASGFTFSSNAMHWVRQAPGKGLEWVAVISHDGSNKYYADSVKGRFTISRDNSKNTLYLQMNSLRAEDTAVYYCARDGSGSYFNLDYWGQGTLVTVSS
VL: QSALTQPASVSGSPGQSITISCTGTSSDVGGYNYVSWYQQHPGKAPKLMIYEVSNRPSGVSNRFSGSKSGNTASLTISGLQAEDEADYYCSSYTSSSTLVFGTGTKVTVL
notes: Patient-derived human antibody made recombinantly; also called human monoclonal antibody 32H2
Turning to B3, the concentration for a half-maximal effect (EC50) with MAGEA3 [10] stood at 0.033 nM. The “EC50 (read off the curve)” value in the experiment with MAGEA3 [10] was roughly 30 pM. Further, the binding result with MAGEA3 peptide no 3, with MAGEA3 peptide no 2, with MAGEA3 peptide no 30, with MAGEA3 peptide no 13, with MAGEA3 peptide no 19 and in the experiment with MAGEA3 peptide no 18 was “no binding (tested: 1 µg/ml)” in each case. Besides, the binding result with MAGEA3 peptide no 28, in the experiment with MAGEA3 peptide no 17, with MAGEA3 peptide no 6 [11], with MAGEA3 peptide no 21 [12], with MAGEA3 peptide no 10 and in the experiment with MAGEA3 peptide no 26 [13] was “no binding (tested: 1 µg/ml)” each time. The binding result in the experiment with MAGEA3 peptide no 11 [14] and with MAGEA3 peptide no 9 [15] was “no binding (tested: 1 µg/ml)” each time.
